Source: US20210347873A1 (SHANGHAI PHARMAEXPLORER, published 2021)

B1: 20D1B6E9E5 (antibody, V domains shown)
VH: EVQLQQSVAELVRPGASVKLSCTASDFNIKNTYIHWVKQRPEQGLEWIGRIDPVNGNTKYAPKFQDKATIIVDTYSNTAYLQLSSLASEDTAVYYCARWPITTIVATDWYFDVWGTGTTVTVSS
VL: DVLMTQTQLALPVRLGEQASISCRSSQSIVNSNGNTYLEWYLQKPGQSPKLLIYKVSNRFSGVPDRFSGSGSGTDFTLKISRVEAEDLGVYYCFQGSHVPWTFGGGTKLEIK
notes: Mouse hybridoma monoclonal antibody purified on Protein G
B2: 67A2E1D10 (antibody, V domains shown)
VH: EVQLQQSGAELVKPGASVKLSCTASGFNIKNYYMHWVKQRTEEGLEWIGRIDPEDGETKYAPKFQAKATITADTSSNTAYLQLSSLTSEDTAVYFCARKGYYGNYGAWFAYWGQGTLVTVSA
VL: DIQMTQSPASLSVSVGETVTITCRASEDLYSNLAWYQQKQGKSPQLLVYAATFLADGVPSRFSGSGSGTQYSLKINSLQSEDFGNYYCQHFWGTPPTFGGGTKLEIK
notes: as for B1
B3: 35E6F7C3 (antibody, V domains shown)
VH: EVQLQQSGAELVKPGASVKLSCTAAGFNIQDTYIHWVKQRPEQGLEWIGRIDPANANTVYDPKFQGKATITADTSSNTAYLQVSSLTSEDTAVYYCASPVITAGFAYWGQGTLVTVSA
VL: QIVLTQSPAIMSASPGEKVTMTCGASSSVNYVHWYQQKSGTSPKRWIYDTSKLASGVPARFSGSGSGTSYSLTISSMEAEDAATYYCQQWTRSPLTFGAGTKVELK
notes: as for B1

Each binder was assayed against mouse BLyS protein (mouse, UniProt Q9WU72 69-309) (assay: cell-based or functional assay).
Sequence of mouse BLyS protein (Q9WU72 69-309): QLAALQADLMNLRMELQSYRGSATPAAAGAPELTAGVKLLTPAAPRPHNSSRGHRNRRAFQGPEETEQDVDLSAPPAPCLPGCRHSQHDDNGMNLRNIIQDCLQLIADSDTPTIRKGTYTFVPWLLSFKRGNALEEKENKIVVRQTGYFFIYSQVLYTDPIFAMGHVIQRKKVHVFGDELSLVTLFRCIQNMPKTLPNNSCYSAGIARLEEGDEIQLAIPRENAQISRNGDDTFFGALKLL

Binder	mouse B lymphocyte proliferation (OD450 nm), antibody 0 nM [OD450 nm]	mouse B lymphocyte proliferation (OD450 nm), antibody 0.000256 nM [OD450 nm]	mouse B lymphocyte proliferation (OD450 nm), antibody 0.00128 nM [OD450 nm]	mouse B lymphocyte proliferation (OD450 nm), antibody 0.0064 nM [OD450 nm]	mouse B lymphocyte proliferation (OD450 nm), antibody 0.032 nM [OD450 nm]	mouse B lymphocyte proliferation (OD450 nm), antibody 0.16 nM [OD450 nm]	mouse B lymphocyte proliferation (OD450 nm), antibody 0.8 nM [OD450 nm]	mouse B lymphocyte proliferation (OD450 nm), antibody 4 nM [OD450 nm]	mouse B lymphocyte proliferation (OD450 nm), antibody 20 nM [OD450 nm]	mouse B lymphocyte proliferation (OD450 nm), antibody 100 nM [OD450 nm]
B1	2260	2090	2170	2180	2380	2120	2480	2200	2240	1920
B2	2120	2390	2200	2110	2260	2330	2490	2410	2240	2070
B3	2160	2160	2340	2520	2430	2410	2530	2520	2560	2490

The binders below were run against T1, human BLyS (full length, arginine to histidine at position 132) on CHO-K1 cells (human, UniProt Q9Y275 1-285) (assay: flow cytometry, CHO-K1 hBLyS cells, antibody 0 nM).
T1 construct: also called hBLyS; CHO-K1 hBLyS
Protocol: (§1) The medium was aspirated completely, and the cells were rinsed once with PBS buffer (purchased from Invitrogen) and then treated with cell dispersion solution (TrypLE™ Express Enzyme, purchased from Life technology) and collected. The detailed steps are as follows: the cells were rinsed once with PBS buffer, after counting, the cells were diluted to 2×10⁶ cells/ml with PBS buffer, blocked with 2% (w/w) fetal bovine serum and incubated on ice for 30 minutes. 200 μL of which per well was aliquoted into a 96-well FACS plate and centrifuged at 2000 rpm at 4° C., then each 100 μL of the lead antibodies obtained from Embodiment 1 and 2 were aliquoted into each well and incubated on ice for 1 hour. […] After centrifuged and rinsed 3 times with FACS buffer, cells were suspended with 200 μL of FACS buffer and the results were detected and analyzed by FACS (FACS Calibur, purchased from BD). It was shown in Tables 12-13 that the lead antibody could bind to human BLyS protein on the cell surface and the lead antibody could cross-react with cynomolgus BLyS. The data in the table is MFI, the average fluorescence intensity of the cell population.

T1 sequence (Q9Y275 whole entry R130H): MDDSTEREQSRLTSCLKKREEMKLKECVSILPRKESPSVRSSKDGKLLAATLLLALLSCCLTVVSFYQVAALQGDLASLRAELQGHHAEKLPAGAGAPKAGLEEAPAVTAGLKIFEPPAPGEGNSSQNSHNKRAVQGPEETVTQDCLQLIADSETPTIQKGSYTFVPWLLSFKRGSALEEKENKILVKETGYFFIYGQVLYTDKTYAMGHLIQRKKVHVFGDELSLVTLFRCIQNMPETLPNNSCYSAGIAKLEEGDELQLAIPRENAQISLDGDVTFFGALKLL

Binder	MFI [MFI]
B1	31.8
B2	31.2
B3	52.4

The binders below were run against T1, human BLyS (full length, arginine to …) (assay: flow cytometry, CHO-K1 hBLyS cells, antibody 13.3 nM).
Protocol: as §1

Binder	MFI [MFI]
B1	498
B2	371
B3	528

The binders below were run against T1, human BLyS (full length, arginine to …) (assay: flow cytometry, CHO-K1 hBLyS cells, antibody 2.67 nM).
Protocol: as §1

Binder	MFI [MFI]
B1	474
B2	279
B3	437

These binders were tested against T1, human BLyS (full length, arginine to …) (assay: flow cytometry, CHO-K1 hBLyS cells, antibody 66.7 nM).
Protocol: as §1

Binder	MFI [MFI]
B1	535
B2	432
B3	609

Target: T2, cynomolgus BLyS (full length, arginine to histidine at position 132) on CHO-K1 cells (cynomolgus, UniProt Q9Y275 1-285 (human entry))
T2 construct: also called cyno BLyS; CHO-K1 cynoBLyS
T2 chain: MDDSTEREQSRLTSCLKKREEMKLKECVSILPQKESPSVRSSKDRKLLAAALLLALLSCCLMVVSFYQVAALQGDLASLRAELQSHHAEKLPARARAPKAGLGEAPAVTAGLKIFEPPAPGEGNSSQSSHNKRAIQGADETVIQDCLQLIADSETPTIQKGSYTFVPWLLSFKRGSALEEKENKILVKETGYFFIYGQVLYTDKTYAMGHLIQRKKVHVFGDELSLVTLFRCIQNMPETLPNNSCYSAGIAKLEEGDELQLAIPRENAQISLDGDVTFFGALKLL
Experiment: flow cytometry, CHO-K1 cynoBLyS cells, antibody 0 nM
Protocol: as §1

Binder	MFI [MFI]
B1	19.8
B2	20.3
B3	20.3

These binders were tested against T1, human BLyS (full length, arginine to …) (assay: flow cytometry, CHO-K1 hBLyS cells, antibody 0.107 nM).
Protocol: as §1

Binder	MFI [MFI]
B1	194
B2	60
B3	110

The binders below were run against T1, human BLyS (full length, arginine to …) (assay: flow cytometry, CHO-K1 hBLyS cells, antibody 0.534 nM).
Protocol: as §1

Binder	MFI [MFI]
B1	402
B2	129
B3	247

The binders below were run against T1, human BLyS (full length, arginine to …) (assay: flow cytometry, CHO-K1 hBLyS cells, antibody 0.0213 nM).
Protocol: as §1

Binder	MFI [MFI]
B1	83.6
B2	37.1
B3	54.9

The binders below were run against T1, human BLyS (full length, arginine to …) (assay: flow cytometry, CHO-K1 hBLyS cells, antibody 0.00427 nM).
Protocol: as §1

Binder	MFI [MFI]
B1	46.8
B2	33.2
B3	39.2

Target: T2, cynomolgus BLyS (full length, arginine …)
Experiment: flow cytometry, CHO-K1 cynoBLyS cells, antibody 13.3 nM
Protocol: as §1

Binder	MFI [MFI]
B1	978
B2	738
B3	1080

Target: T2, cynomolgus BLyS (full length, arginine …)
Experiment: flow cytometry, CHO-K1 cynoBLyS cells, antibody 2.67 nM
Protocol: as §1

Binder	MFI [MFI]
B1	933
B2	518
B3	953

Target: T2, cynomolgus BLyS (full length, arginine …)
Experiment: flow cytometry, CHO-K1 cynoBLyS cells, antibody 66.7 nM
Protocol: as §1

Binder	MFI [MFI]
B1	1030
B2	842
B3	1130

Target: T2, cynomolgus BLyS (full length, arginine …)
Experiment: flow cytometry, CHO-K1 cynoBLyS cells, antibody 0.107 nM
Protocol: as §1

Binder	MFI [MFI]
B1	349
B2	76.6
B3	177

Target: T2, cynomolgus BLyS (full length, arginine …)
Experiment: flow cytometry, CHO-K1 cynoBLyS cells, antibody 0.534 nM
Protocol: as §1

Binder	MFI [MFI]
B1	808
B2	213
B3	501

Target: T2, cynomolgus BLyS (full length, arginine …)
Experiment: flow cytometry, CHO-K1 cynoBLyS cells, antibody 0.0213 nM
Protocol: as §1

Binder	MFI [MFI]
B1	118
B2	35.3
B3	66.3

Target: T2, cynomolgus BLyS (full length, arginine …)
Experiment: flow cytometry, CHO-K1 cynoBLyS cells, antibody 0.00427 nM
Protocol: as §1

Binder	MFI [MFI]
B1	50.4
B2	24.7
B3	32.6
